Consider two molecules from patent US11357847B2, “Modified HSV gD protein and vaccine containing same” (KM Biologics Co., Ltd., priority 2017, dated 2022).

The subject of assay [1] is various anti-gD2 antibodies. Kind of assay: Reactivity of gD variants with anti-gD2 antibodies (competitive ELISA). The format is binding, human. The settings on record: for Reactivity with anti-gD2 antibody 1 / Reactivity with anti-gD2 antibody 5 / Reactivity with anti-gD2 antibody 13 / Reactivity with anti-gD2 antibody 72 / Reactivity with anti-gD2 antibody 75 / Reactivity with anti-gD2 antibody 78 / Reactivity with anti-gD2 antibody 82: immobilized gD variant. The source says:
Each anti-gD2 monoclonal antibody and each gD variant were expressed using an Expi293 expression system.
Background: An ELISA detects its analyte on a solid surface through an enzyme-linked reagent.

For the next assay, the target named is T1, HVEM (Homo sapiens, UniProt Q92956).
T1 sequence (Q92956 39-202): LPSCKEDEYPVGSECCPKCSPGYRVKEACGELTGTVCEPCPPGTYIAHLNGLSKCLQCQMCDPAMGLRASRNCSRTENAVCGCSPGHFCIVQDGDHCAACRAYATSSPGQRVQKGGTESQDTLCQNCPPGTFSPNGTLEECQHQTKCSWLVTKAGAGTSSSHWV
Kind of assay: Reactivity of HVEM with gD variants (competitive ELISA). The format is binding. The settings on record: compared to the original gD1-315; FIG. 14. The method, then: From the above discussion, it can be strongly inferred that each variant takes the structure in which FR1 is bound to the receptor binding region. The reactivity of HVEM with each variant was then measured by competitive ELISA.
HVEM can bind gD for the first time when FR1 binds to the receptor binding region and takes a characteristic hairpin structure. […] FR3-deficient gD1-275v5-55 promoted FR1 binding and further HVEM binding over other gD1-315-based variants in which FR3 was present.

The next assay concerns the target gD1-315 (Human herpesvirus 2, UniProt P03172, R52Q). The note with it: compared to wild-type gD immune serum; FIG. 33. The method, then: IgG was purified from serum and analyzed by competitive methods using SPR (Biacore, Inc.) to make antibody amounts uniform.
The anti-gD2 antibody competition test was performed using Biacore 3000 (GE Healthcare), where, in all experiments, HBS-EP buffer (GE Healthcare) was used, the temperature was set to 25° C., and the flow rate was set to 20 μL/min. CMS senor chip (GE Healthcare) was used as the sensor chip, and the experiment was performed based on the recommended protocol. gD1-315-His was immobilized at about 300 RU on the chip surface, and for chip regeneration, glycine-hydrochloride buffer of 0.1 M and pH 2.0 was used and the chip was washed twice at a flow rate of 30 μL/min for 30 seconds. Procedures for competition and calculation of the competition rate were as follows. 10 μg/mL of each anti-gD2 antibody or buffer was applied to the chip under a condition of binding for 1 minute and dissociation for 2.5 minutes. 20 μg/mL of each immune serum purified by IgG was then applied under a condition of binding for 1 minute and dissociation for 5 minutes. After buffer application, the RU detected when immune serum was applied was set to 100%, and the decrease in immune serum response by anti-gD2 antibody application was calculated as the competitive rate.

Another assay has as its target gD-HVEM interactions (Human herpesvirus 2, UniProt P03172, R52Q). The note with it: compared to wild-type gD immune serum; FIG. 34.
For a further assay, the system named is splenocytes. Kind of assay: Cellular immune (T cell immune)-inducing activity, IFN-γ production response of splenocytes. In kind it is in vivo, BALB/c mice. The note with it: 3 μg/mouse; compared to the wild-type gD immune group; FIG. 25. The method, then:
Furthermore, for cellular immune (T cell immune) inducing activity, the IFN-γ production response activity (recall activity) of splenocytes (a pool sample of four cases) prepared from mice immunized with gD1-315v3-55 as an example of a modified gD antigen and wild-type gD (gD1-315) (3 μg/mouse of the administration group) was compared and analyzed. Specifically, 5 weeks old BALB/c mice were immunized with 3 μg of antigen subcutaneously in back at 2-week intervals for a total of 3 times, and splenocytes were collected 2 weeks after the final immunization. Anti-IFN-γ was immobilized in a 96-well plate with a PVDF membrane on the bottom surface and cells were seeded at 1×10^6 cells/100 μL/well. Immune antigens were added as stimulants at 10 mM and the cells were cultured at 37° C. and 5% CO2 for 20 hours. The supernatant was removed and the anti-mouse IFNγ-HRP antibody was reacted, then HRP was stained with AEC reagents to count IFNγ-producing cell numbers with an Image Analyzer (CTL).

In a further assay the test system is HSV-2 MS strain. Kind of assay: Mouse infection-prevention test of modified gD (genital herpes infection model). In kind it is in vivo, BALB/c mice. Also on record: key to Determination (vs gD1-315) / Determination# (vs gD1-315): ++: minimum effective dose based on the Significant difference test in three-fold common ratio relative to gD1-315(WT) of two or more doses stronger; +: those of one dose stronger; ±: those of an equivalent value. Put shortly:
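Female BALB/c mice immunized s.c. three times at 2-week intervals with gD antigen at 0.1–0.003 μg/mouse/time plus MPLA (10 μg) and CpG (1 μg), n=10. Depo-Provera 2 mg s.c. given, then 5×10^5 PFU HSV-2 MS intravaginally 2 weeks post-boost; survival over 21 days, Kaplan-Meier vs saline, scored relative to wild-type gD1-315.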

[2] abbreviates: Experiment 1, 0.003 μg/head/time.
The mark [3] stands for this setting: Experiment 1, 0.01 μg/head/time.
Where [4] appears, read: Experiment 1, 0.03 μg/head/time.
The mark [5] stands for this setting: Experiment 2, 0.003 μg/head/time.
The mark [6] stands for this setting: Experiment 2, 0.01 μg/head/time.
The mark [7] stands for this setting: Experiment 2, 0.03 μg/head/time.

Changes are numbered by the printed parent chain.

Chain of gD1-315 (P03172 26-340 R52Q): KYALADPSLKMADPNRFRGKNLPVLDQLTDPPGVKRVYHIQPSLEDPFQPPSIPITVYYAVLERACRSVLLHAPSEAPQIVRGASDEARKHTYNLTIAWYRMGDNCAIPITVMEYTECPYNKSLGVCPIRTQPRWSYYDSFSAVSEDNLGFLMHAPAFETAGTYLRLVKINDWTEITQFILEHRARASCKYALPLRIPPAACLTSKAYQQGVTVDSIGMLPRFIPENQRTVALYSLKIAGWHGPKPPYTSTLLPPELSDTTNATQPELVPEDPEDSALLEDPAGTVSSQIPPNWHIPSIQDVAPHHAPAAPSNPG
Chain of gD-HVEM interactions (P03172 26-330 R52Q): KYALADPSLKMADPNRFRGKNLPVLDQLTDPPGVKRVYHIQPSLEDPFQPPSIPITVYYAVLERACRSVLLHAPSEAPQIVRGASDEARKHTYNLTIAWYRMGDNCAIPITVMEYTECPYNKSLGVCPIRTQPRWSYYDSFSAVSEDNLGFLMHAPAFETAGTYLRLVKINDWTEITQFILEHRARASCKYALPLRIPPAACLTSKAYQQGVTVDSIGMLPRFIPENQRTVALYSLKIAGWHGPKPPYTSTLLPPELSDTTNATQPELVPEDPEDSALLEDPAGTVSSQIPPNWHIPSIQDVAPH
Procedure for gD-HVEM interactions: Inhibition of gD-HVEM interactions by modified gD immune serum was also analyzed. Specifically, 100 μL of gD1-305-cys-strep dimer adjusted to a concentration of 5 μg/mL with phosphate buffered saline was immobilized in a 96-well microtiter plate at 4° C. overnight. Subsequently, blocking and washing were performed as in the competitive ELISA method described above, 100 μL of IgG purified from each immune serum was added at any concentration and reacted at room temperature for one hour. Subsequently, 1 μg/mL of HVEM (Recombinant Human HVEM/TNFRSF14 Fc Chimera Protein, R&D SYSTEMS, Inc.) was diluted at any dilution fold with 1% BSA PBS, each added at 100 μL and reacted at room temperature for an additional hour. Each well was washed again with PBS-T, then, HRP-labeled antibody (anti-hFc/HRP/1% BSA PBS) was reacted. Each well was washed with PBS-T, then colored, and after the reaction was stopped with 1N sulfuric acid, absorbance of 450 nm/650 nm was measured.

B1: gD1-315v5-55: gD1-315 with glycochains at SC-A, SC-F, linked to T cell epitope peptide DP5 (protein)
chain: KYALADPSLKMADPNRFRGKNLPVLDQLTDPPGVKRVYHIQPSLEDPFQNASIPITVYYAVLERACRSVLLHAPSEAPQIVRGASDEARKHTYNLTIAWYRMGDNCAIPITVMEYTECPYNKSLGVCPIRTQPRWSYYDSFSAVSEDNLGFLMHAPAFETAGTYLRLVKINDWTEITQFILEHRANASCKYALPLRIPPAACLTSKAYQQGVTVDSIGMLPRFIPENQRTVALYSLKIAGWHGPKPPYTSTLLPPELSDTTNATQPELVPEDPEDSALLEDPAGTVSSQIPPNWHIPSIQDVAPHHAPAAPSNPGGPGPGIAFWVRRRAQMAPKPLRIAFWVRRRAQMAPKPLRHHHHHH
modifications: left off: small tags and cut ends
Regarding B1, the “Relative reactivity with antibody No. 82 (gD1-315 wild-type set to 1)” value in assay [1] (FIG. 13) is reported as “approximately 12 fold”. Moreover, in assay [1], the “Reactivity with anti-gD2 antibody 1” value was “+ ((+): 70% or more)”, the “Reactivity with anti-gD2 antibody 5” value was “− ((−): less than 30%)”, the “Reactivity with anti-gD2 antibody 13” value is “+ ((+): 70% or more)” and the “Reactivity with anti-gD2 antibody 72” value is “− ((−): less than 30%)”. Besides, in assay [1], the “Reactivity with anti-gD2 antibody 75” value is given as “− ((−): less than 30%)”, the “Reactivity with anti-gD2 antibody 78” value is listed as “− ((−): less than 30%)” and the “Reactivity with anti-gD2 antibody 82” value was “+ ((+): 70% or more)”. For the same molecule, the “Reactivity with HVEM” value with HVEM is reported as “highest reactivity”. In the assay with gD1-315, the “Percentage of antibodies in immune serum competing with antibody No. 1” value is recorded as “little change”, the “Percentage of antibodies in immune serum competing with antibody No. 72” value is “tend to decrease” and the “Percentage of antibodies in immune serum competing with antibody No. 82” value is recorded as “increased percentage”. In addition, in the assay with gD-HVEM interactions, the “Inhibition of gD-HVEM interaction by immune serum IgG” value is reported as “strong inhibitory effects”.

B2: gD1-315v3-55: gD1-315 with glycochain at SC-F, linked to two DP5 T cell epitope peptides (protein)
chain: B1 chain with N186R
modifications: left off: small tags and cut ends
On to B2, for which, in assay [1], the “Reactivity with anti-gD2 antibody 1” value was “+ ((+): 70% or more)”, the “Reactivity with anti-gD2 antibody 5” value is “− ((−): less than 30%)”, the “Reactivity with anti-gD2 antibody 13” value is listed as “+ ((+): 70% or more)” and the “Reactivity with anti-gD2 antibody 72” value was “− ((−): less than 30%)”. Besides, in assay [1], the “Reactivity with anti-gD2 antibody 75” value is on record as “− ((−): less than 30%)”, the “Reactivity with anti-gD2 antibody 78” value is reported as “− ((−): less than 30%)” and the “Reactivity with anti-gD2 antibody 82” value was “+ ((+): 70% or more)”. For the same molecule, the “IFN-γ production response activity (recall activity) of splenocytes” value in the assay with splenocytes was “higher response activity”. In the assay with HSV-2 MS strain (setting [2]), the “Mean survival time” value is on record as over 16 days and the “Significant difference test (vs saline)” value is “*** (*** p < 0.001)”. In the assay with HSV-2 MS strain (setting [3]), the “Mean survival time” value is given as 15 days and the “Significant difference test (vs saline)” value is recorded as “*** (*** p < 0.001)”. Also, in the assay with HSV-2 MS strain (setting [4]), the “Mean survival time” value is over 21 days and the “Significant difference test (vs saline)” value is on record as “*** (*** p < 0.001)”. For the same molecule, in the assay on HSV-2 MS strain (Experiment 1, 0.1 μg/head/time), the “Mean survival time” value is given as over 21 days and the “Significant difference test (vs saline)” value is “*** (*** p < 0.001)”. For the same molecule, the “Determination (vs gD1-315)” value with HSV-2 MS strain (Experiment 1, minimum effective dose relative to gD1-315(WT)) was “++”. In the assay on HSV-2 MS strain (setting [5]), the “Mean survival time” value stood at 7 days and the “Significant difference test (vs saline)” value is “N.S”. For the same molecule, in the assay with HSV-2 MS strain (setting [6]), the “Mean survival time” value is listed as over 16 days and the “Significant difference test (vs saline)” value is recorded as “N.S”. In addition, in the assay on HSV-2 MS strain (setting [7]), the “Mean survival time” value is listed as over 22 days and the “Significant difference test (vs saline)” value is on record as “*** (*** p < 0.001)”. In the assay with HSV-2 MS strain (Experiment 2, 0.1 μg/head/time), the “Mean survival time” value is over 22 days and the “Significant difference test (vs saline)” value is reported as “*** (*** p < 0.001)”. For the same molecule, the “Determination# (vs gD1-315)” value in the assay on HSV-2 MS strain (Experiment 2, minimum effective dose relative to gD1-315(WT)) is listed as “+”. Besides, in the assay with gD1-315, the “Percentage of antibodies in immune serum competing with antibody No. 1” value is given as “little change”, the “Percentage of antibodies in immune serum competing with antibody No. 72” value is “tend to decrease” and the “Percentage of antibodies in immune serum competing with antibody No. 82” value is “increased percentage”.
